Legend:
[1] = target: T1, AmtR-MBP wild type (Corynebacterium glutamicum ATCC13032) (UniProt H7C699); assay: EMSA; settings: EMSA: DIG gel shift kit (Roche) conditions, 0.04 ng DNA, native 6% PAGE in 0.5x TBE; SPR: HBS-EP running buffer, 25 °C, BIAcoreX, nonspecific 30-mer DNA in the …
T1 sequence: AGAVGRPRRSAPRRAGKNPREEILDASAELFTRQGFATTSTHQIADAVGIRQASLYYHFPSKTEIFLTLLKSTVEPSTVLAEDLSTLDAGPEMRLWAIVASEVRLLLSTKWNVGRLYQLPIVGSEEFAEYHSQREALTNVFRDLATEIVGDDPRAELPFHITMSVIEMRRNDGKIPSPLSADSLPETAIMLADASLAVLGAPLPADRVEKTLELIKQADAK

[2] = target: T2, AmtR-MBP wild type (Corynebacterium glutamicum ATCC13032, UniProt H7C699 2-222); assay: EMSA; settings: EMSA: DIG gel shift kit (Roche) conditions, 0.04 ng DNA, native 6% PAGE in 0.5x TBE; SPR: HBS-EP running buffer, 25 °C, BIAcoreX, nonspecific 30-mer DNA in the …
T2 sequence: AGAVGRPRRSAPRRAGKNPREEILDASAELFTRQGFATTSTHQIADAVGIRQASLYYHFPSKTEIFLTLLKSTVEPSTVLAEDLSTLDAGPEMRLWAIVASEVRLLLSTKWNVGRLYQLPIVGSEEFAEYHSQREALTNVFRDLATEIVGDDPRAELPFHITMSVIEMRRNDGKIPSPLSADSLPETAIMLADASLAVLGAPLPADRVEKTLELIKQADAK

[3] = target: T2, AmtR-MBP wild type; assay: SPR; EMSA: DIG gel shift kit (Roche) conditions, 0.04 ng DNA, native 6% PAGE in 0.5x TBE; SPR: HBS-EP running buffer, 25 °C, BIAcoreX, nonspecific 30-mer DNA in the; settings: protein: recombinant; tags: N-terminal MBP (pMalc2); chain copies: 2; label: 3' biotin on forward strand; blunt

## GCCCGTGGTGTGCTCACCAATGATGAAGTCGACGCGCTGACACAGGTGTGGACTTCCGCACTGAGCTTGCAGTCGAAACGTTGGATGGATCACATCCATGATCAAGAAACCACCGCTTGGGAGCTTCCCGCGCTGCAACGTGCCACTTTTGGCGCATCGGCTCGGTTGCTTTCTGAGGTGTTGCGGTCCGTTGAAGCCCGTGAAATCGATACCATAATAGGAACTCTG (double strand) [amtR upstream DNA, additional spacing nucleotide]
[1]
  binding: binds

## GCTGGGCTAGAAACCCGATAAGCGAGAACCACCTGTCGGATGTTGTCTGGCAGGTGGTTTTCTTTTGCCTGGGTACCACCAAAAAGCAGCTGTGATGCACTTAACAATTCATTAAATTACCTGTTAAACTATAGAAAATATCCAAAACCCTCCAAAACCTATTCTATAGATCTATTGAAATTAGTTTCTGTAGGTCTATAGTTAGAGCTGGTTCAAGGGGTGTCAATCCCAAAAGGCACTCCTTGAACTCATGAAAAAGCTTGACAAAACTTCAACGTCAAAGGAGGTCATCCACGC (double strand) [amtB promoter PCR fragment]
[1]
  Kd: 2.4 µM

## amtB promoter PCR fragment
[2]
  Kd: 2.4 µM

B1: amtBp SPR 30-mer (dsDNA)
DNA 1: TAAATTACCTGTTAAACTATAGAAAATATC
DNA 2: GATATTTTCTATAGTTTAACAGGTAATTTA
[3]
  binding result: binds

Source: paper PMC2723105, “DNA binding by Corynebacterium glutamicum TetR-type transcription regulator AmtR”
